Entries after “also recorded” stand apart in the source; their conditions may differ.
Tests used:
[1] = target: T1, TGF-β (Homo sapiens, UniProt P01137); test: Binding of 125I-TGF-β to L-M(tk-) cells; conditions: various concentrations of peptide (FIG. 12)
Procedure: About 2.5×10^4 HepG2 cells or L-M(tk-) cells were incubated with 250 pM[^125 I]TGF-β in the presence of recombinant human decorin (DC-12), PT-71 (MBP), decorin fragments (PT-72, -73, -84, -85, -86 and -87) or anti-TGF-β antibodies for 2 hours at room temperature. Cells were washed with washing buffer (128 mM NaCl, 5 mM KCl, 5 mM […], 1.2 mM CaCl2, 50 mM HEPES, pH 7.5) four times before determination of bound CPM.
The activity of the peptides was evaluated using the L-M(tk-) TGFβ1 binding inhibition assay described in Example VII, except various concentrations of peptide were incubated with the cells and TGFβ1 instead of decorin and recombinant decorin fragments. The negative control was a synthetic peptide corresponding to the first 15 amino acids of decorin, which has the sequence […](SEQ ID NO. 21).

[2] = target: TGFβ-1 (Homo sapiens, UniProt P01137); test: Microtiter binding assay: [125I]-TGFβ-1 binding to decorin-coated wells and competition; parameters: contains a major band at 25 kd; This band represents the native TGFβ-1 dimer; purchased Calbiochem, La Jolla, Calif; conditions: for inhibition of [125I]-TGFβ-1 binding to decorin-coated wells by core proteins: core proteins / chondroitinase ABC-treated, 4° C. overnight (FIG. 3B); for inhibition of [125I]-TGFβ-1 binding to decorin-coated wells: intact proteoglycans, 37° C. 4 hours (FIG. 3A); for binding of [125I]-TGFβ-1 to microtiter wells coated with the protein: protein coated on wells
Chain of TGFβ-1 (P01137 279-390 limits assumed, species assumed): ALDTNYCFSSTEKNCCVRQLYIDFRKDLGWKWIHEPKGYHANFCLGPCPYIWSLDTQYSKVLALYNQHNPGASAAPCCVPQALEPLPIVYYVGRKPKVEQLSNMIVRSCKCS
Procedure: The binding of TGFβ-1 to decorin was also examined in a microtiter binding assay. To perform the assay, the wells of a 96-well microtiter plate were coated overnight with 2μg/ml of recombinant decorin in 0.1M sodium carbonate buffer, pH 9.5. The wells were washed with PBS containing 0.05% Tween (PBS/Tween) and samples containing 5×10^4 cpm of [^125 I]-TGFβ-1 and various concentrations of competitors in PBS/Tween were added to each well. The plates were then incubated at 37° C. for 4 hours (at 4° C. overnight in experiments with chondroitinase ABC-digested proteoglycans), washed with PBS/Tween and the bound radioactivity was solubilized with 1% SDS in 0.2M NaOH. Total binding without competitors was about 4% under the conditions used. Nonspecific binding, determined by adding 100-fold molar excess of unlabeled TGFβ-1 over the labeled TGFβ-1 to the incubation mixture, was about 13% of total binding. This assay was also used to study the ability of other decorin preparations and related proteins to compete with the interaction.
Decorin isolated from bovine skin and biglycan isolated from bovine articular cartilage (PGI and PGII, obtained from Dr. Lawrence Rosenberg, Monteflore Medical Center, N.Y.; and described in Rosenberg et al., J. Biol. Chem. 250:6304-6313, (1985), incorporated by reference herein), chicken cartilage proteoglycan (provided by Dr. Paul Goetinck, La Jolla Cancer Research Foundation, La Jolla, Calif., and described in Goetinck, P. F., in THE GLYCOCONJUGATES, Vol. III, Horwitz, M. I., Editor, pp. 197-217, Academic Press, NY). For the preparation of core proteins, proteoglycans were digested with chondroitinase ABC (Seikagaku, Tokyo, Japan) by incubating 500 μg of proteoglycan with 0.8 units of chondroitinase ABC in 250 μl of 0.1M Tris/Cl, pH 8.0, 30 mM sodium acetate, 2 mM PMSF, 10 mM N-ethylmalelmide, 10 mM EDTA, and 0.36 mM pepstatin for 1 hour at 37° C. Recombinant decorin and decorin isolated from bovine skin (PGII) inhibited the binding of [^125 I]-TGFβ-1, as expected (FIG. 3A). […] This notion was further supported by competition experiments with the mutated decorin core protein (not shown) and chondroitinase ABC-digested decorin and biglycan (FIG.3B). Each of these proteins was inhibitory, whereas cartilage proteoglycan core protein was not.

[3] = target: T1, TGF-β; test: Binding of 125I-TGF-β to immobilized decorin with competitors; conditions: 400 pM 125I-TGF-β pre-incubated with competitor; overnight 0° C.
Procedure: Immulon wells were coated with 0.5 μg/ml recombinant decorin at 50 μl/well. The wells were placed in a 37° C. incubator overnight and thereafter washed 3 times with 200 μl PBS (0.15M NaCl ) per well to remove unbound decorin. TGF-β labeled with ^125 I (400 pM, New England Nuclear, Bolton-Hunter Labeled) was pre-incubated with or without competitors in 200 μl PBS/0.05% Tween-20 for 1 hour and 45 minutes at room temperature. Competitors included recombinant human decorin preparations (DC-13 and DC-18v), decorin fragments, and MBP as a negative control.
Fifty μl/well of the pre-incubated ^125 I-TGF-β mixture or control were added and incubated overnight at 0° C. Following the incubation, 50 μl of the free TGF-β supernatants were transferred to labeled tubes. The plate was washed 3 times with 0.05% Tween-20 in PBS (200 μl/well). The wells were then transferred into tubes for counting in a gamma counter.
Further binding studies were conducted with soluble N-terminal decorin peptide fragments synthesized and tested for their ability to inhibit TGF-β1 binding to immobilized decorin as described above.

T1 sequence (P01137 279-390 limits assumed): as the sequence (P01137 279-390 limits assumed, species assumed) above

PFRSQSHLRVVQ [P25 -Q36, 18]
inhibition of binding of TGFβ1 to L-M(tk-) cells by synthetic peptides [1]: inhibited

Bovine serum albumin treated with chondroitinase ABC: BSA treated with chondroitinase ABC, control [reference compound]
inhibition of [125I]-TGFβ-1 binding to decorin-coated wells by core proteins [2]: did not shown any inhibition

PFRCQCHLRVVQ [nP25 -Q36, 20]
inhibition of binding of TGFβ1 to L-M(tk-) cells by synthetic peptides [1]: demonstrated inhibitory activity, albeit to a lesser extent

Bovine serum albumin: bovine serum albumin control [reference compound]
inhibition of [125I]-TGFβ-1 binding to decorin-coated wells [2]: did not shown any inhibition

B1: Biglycan isolated from bovine articular cartilage: biglycan isolated from bovine articular cartilage (protein)
chain: DEEASGAETTSGIPDLDSLPPTYSAMCPFGCHCHLRVVQCSDLGLKAVPKEISPDTTLLDLQNNDISELRKDDFKGLQHLYALVLVNNKISKIHEKAFSPLRKLQKLYISKNHLVEIPPNLPSSLVELRIHDNRIRKVPKGVFSGLRNMNCIEMGGNPLENSGFEPGAFDGLKLNYLRISEAKLTGIPKDLPETLNELHLDHNKIQAIELEDLLRYSKLYRLGLGHNQIRMIENGSLSFLPTLRELHLDNNKLSRVPAGLPDLKLLQVVYLHTNNITKVGVNDFCPVGFGVKRAYYNGISLFNNPVPYWEVQPATFRCVTDRLAIQFGNYKK
modifications: intact proteoglycan (carries glycosaminoglycan)
inhibition of [125I]-TGFβ-1 binding to decorin-coated wells [2]: as effective an inhibitor as decorin | binding of [125I]-TGFβ-1 to microtiter wells coated with the protein [2]: bound

B2: chondroitinase ABC-digested biglycan: biglycan core protein prepared by chondroitinase ABC digestion (protein)
chain: DEEASGAETTSGIPDLDSLPPTYSAMCPFGCHCHLRVVQCSDLGLKAVPKEISPDTTLLDLQNNDISELRKDDFKGLQHLYALVLVNNKISKIHEKAFSPLRKLQKLYISKNHLVEIPPNLPSSLVELRIHDNRIRKVPKGVFSGLRNMNCIEMGGNPLENSGFEPGAFDGLKLNYLRISEAKLTGIPKDLPETLNELHLDHNKIQAIELEDLLRYSKLYRLGLGHNQIRMIENGSLSFLPTLRELHLDNNKLSRVPAGLPDLKLLQVVYLHTNNITKVGVNDFCPVGFGVKRAYYNGISLFNNPVPYWEVQPATFRCVTDRLAIQFGNYKK
modifications: glycosaminoglycan removed with chondroitinase ABC
notes: biglycan core protein prepared by chondroitinase ABC digestion
inhibition of [125I]-TGFβ-1 binding to decorin-coated wells by core proteins [2]: inhibitory; also recorded: somewhat more active than the intact proteoglycans | binding of [125I]-TGFβ-1 to microtiter wells coated with the protein [2]: bound

B3: decorin isolated from bovine skin (PGII): decorin isolated from bovine skin (protein, UniProt P21793 31-360, looked up)
Decorin: DEASGIGPEEHFPEVPEIEPMGPVCPFRCQCHLRVVQCSDLGLEKVPKDLPPDTALLDLQNNKITEIKDGDFKNLKNLHTLILINNKISKISPGAFAPLVKLERLYLSKNQLKELPEKMPKTLQELRVHENEITKVRKSVFNGLNQMIVVELGTNPLKSSGIENGAFQGMKKLSYIRIADTNITTIPQGLPPSLTELHLDGNKITKVDAASLKGLNNLAKLGLSFNSISAVDNGSLANTPHLRELHLNNNKLVKVPGGLADHKYIQVVYLHNNNISAIGSNDFCPPGYNTKKASYSGVSLFSNPVQYWEIQPSTFRCVYVRAAVQLGNYK
inhibition of [125I]-TGFβ-1 binding to decorin-coated wells [2]: inhibited

B4: DC-13: preparation of recombinant human decorin (protein)
chain: DEASGIGPEVPDDRDFEPSLGPVCPFRCQCHLRVVQCSDLGLDKVPKDLPPDTTLLDLQNNKITEIKDGDFKNLKNLHALILVNNKISKVSPGAFTPLVKLERLYLSKNQLKELPEKMPKTLQELRAHENEITKVRKVTFNGLNQMIVIELGTNPLKSSGIENGAFQGMKKLSYIRIADTNITSIPQGLPPSLTELHLDGNKISRVDAASLKGLNNLAKLGLSFNSISAVDNGSLANTPHLRELHLDNNKLTRVPGGLAEHKYIQVVYLHNNNISVVGSSDFCPPGHNTKKASYSGVSLFSNPVQYWEIQPSTFRCVYVRSAIQLGNYK
modifications: single glycosaminoglycan chain of a chondroitin sulfate/dermatan sulfate type on serine-4
notes: preparation of recombinant human decorin
inhibition of 125I-TGF-β binding to immobilized decorin [3]: inhibited

B5: DC-18V: preparation of recombinant human decorin (protein)
chain: DEASGIGPEVPDDRDFEPSLGPVCPFRCQCHLRVVQCSDLGLDKVPKDLPPDTTLLDLQNNKITEIKDGDFKNLKNLHALILVNNKISKVSPGAFTPLVKLERLYLSKNQLKELPEKMPKTLQELRAHENEITKVRKVTFNGLNQMIVIELGTNPLKSSGIENGAFQGMKKLSYIRIADTNITSIPQGLPPSLTELHLDGNKISRVDAASLKGLNNLAKLGLSFNSISAVDNGSLANTPHLRELHLDNNKLTRVPGGLAEHKYIQVVYLHNNNISVVGSSDFCPPGHNTKKASYSGVSLFSNPVQYWEIQPSTFRCVYVRSAIQLGNYK
modifications: single glycosaminoglycan chain of a chondroitin sulfate/dermatan sulfate type on serine-4
notes: as for B4
inhibition of 125I-TGF-β binding to immobilized decorin [3]: inhibited

B6: mutated decorin core protein: decorin core protein with serine-4 mutated, lacking glycosaminoglycan (protein)
chain: DEATGIGPEVPDDRDFEPSLGPVCPFRCQCHLRVVQCSDLGLDKVPKDLPPDTTLLDLQNNKITEIKDGDFKNLKNLHALILVNNKISKVSPGAFTPLVKLERLYLSKNQLKELPEKMPKTLQELRAHENEITKVRKVTFNGLNQMIVIELGTNPLKSSGIENGAFQGMKKLSYIRIADTNITSIPQGLPPSLTELHLDGNKISRVDAASLKGLNNLAKLGLSFNSISAVDNGSLANTPHLRELHLDNNKLTRVPGGLAEHKYIQVVYLHNNNISVVGSSDFCPPGHNTKKASYSGVSLFSNPVQYWEIQPSTFRCVYVRSAIQLGNYK
inhibition of [125I]-TGFβ-1 binding to decorin-coated wells by core proteins [2]: inhibitory

B7: chondroitinase ABC-digested decorin: decorin core protein prepared by chondroitinase ABC digestion (protein)
chain: DEATGIGPEVPDDRDFEPSLGPVCPFRCQCHLRVVQCSDLGLDKVPKDLPPDTTLLDLQNNKITEIKDGDFKNLKNLHALILVNNKISKVSPGAFTPLVKLERLYLSKNQLKELPEKMPKTLQELRAHENEITKVRKVTFNGLNQMIVIELGTNPLKSSGIENGAFQGMKKLSYIRIADTNITSIPQGLPPSLTELHLDGNKISRVDAASLKGLNNLAKLGLSFNSISAVDNGSLANTPHLRELHLDNNKLTRVPGGLAEHKYIQVVYLHNNNISVVGSSDFCPPGHNTKKASYSGVSLFSNPVQYWEIQPSTFRCVYVRSAIQLGNYK
inhibition of [125I]-TGFβ-1 binding to decorin-coated wells by core proteins [2]: inhibitory; also recorded: somewhat more active than the intact proteoglycans

— patent US5705609A, “Decorin fragments inhibiting cell regulatory factors” (La Jolla Cancer Research Foundation, priority 1995, dated 1998)
